Assay: yeast display, Sf9 membrane polyspecificity reagent, FACS + sequencing; frameworks hold sequencing errors
Summary of the method: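 Genes from sorted yeast were amplified by colony PCR, read by MiSeq 2 × 250 sequencing and filtered on CDR length. These cells carried a synthetic nanobody library in Saccharomyces cerevisiae BJ5465 and were sorted by FACS into low and high (top ~1%) gates on anti-HA and streptavidin fluorescence. Polyreactivity is labelled according to the gate of origin.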

Sequence | polyreactivity (PSR sort gate)
QVHLEESGGGLVQAGGSLRLRCAASGFTFGHYTMGWYRQAPGKERELVAAITWRGGTYYADSVKGRFTISRDNAKNTVYLQMNSLKPEDTAVYYCNARFGQTVKGTYGRYYYWGQGTQVTVSS | high polyreactivity
QVHLEESGGGLVQAGGSLRLSCAASGLTFQWNAMGWYRQAPGKERELVAAISYSGGSTYYAYSVKGRFTISRDNAKYCVYLQMKSLKPEDTAVYYCAARTYSQWLQRYRLLGQGTQVTVSS | high polyreactivity
QVHLEESGGGLVQAGGSLRLSCAASGSIFGDNAKGWYRQAPGKERELVAAISSSGGSTYADSVKGRFTISRDNAKNTVYLQMNSLKPEDTAVYYCATQIAWCTYVINPQMDFWGQGTLVTVSS | low polyreactivity
QVHLEESGGGLVQAGGSLRLTCAASGFTFQLYAMGWYRQPPGKERELVAAINYRGSSTYYADSVKGRFTISRDNAKNTVYLQMNSLKPEDTAVYYCNAAQYYERFNHWGQGTQVTVSS | high polyreactivity
QVHLHETGGGLVQAGGSLRLSCAASGTISVTYNMGWYRQAPGKEREFVAGNSTGATTNYADSVKGRFTISRDNANNTVYLQMNSLKPEDTAVYYCAAHIYRKDHFYYWGQGTQVTVSS | low polyreactivity
QVHLLASGGGLVQAGGSLGLSCAASGRPFNGYALGWYRPAPGSERELVASITLRGGSTYYADSVKGRFTISRDNAKYTVYLQMNCLKPEDTAVYYCNARPNTRRYTFPYGNCGQGTQVTVSS | high polyreactivity
QVHLLDSGGGLVQEGGSLRLSCAASGSTIYVYAMGWYRQAPGKERELVAAITWDGDRTYYADSVKGRFTISRHNAKNTVYLHMTSLNPEDSAVYYCNRDIGGTSVLDDYWGQGTQVTVSS | low polyreactivity
QVHLLESGGGLLQAGGSLRLNSDASGSTFITYCIGWFRQAPGKERELVARITLSGGSTYYADSVKGRFTSSRDNAKNTVYLQMNRLKPEDTAVYYCATDFGWQYYVLDGYYWGQGTQVTVSS | low polyreactivity
QVHLLESGGGLLQAGGSLRLSCAASGLIFRPYAMGWYRQAPGKERELVAGISFRGDSTYYADSVKGRFTISRDNAKNTVYLHMNSLKPEDTAVYYWNKRKASSSGYNYWGQGTQVTVSS | low polyreactivity
QVHLLESGGGLVQAGGSLRLSCAASGRTLSRYTMGWYRQAPGKERELVAAISTSGSTYYADSVKGRFTISRDNAKNTVYLPMNCLKPEDTAVYYCAATHWAYSRVPYDYWGQGTQVTVSS | high polyreactivity
QVHLQESGGLVQAGGLRLSCAASGSVSYHEAMGWYRQAPAKERELVATISFGANTNYADSVKGRFTISRDNAKHTVYLHMNSLKPEDTAVYYCAAESLFDDYYGYWGQGTQVTVSS | low polyreactivity
QVHLQESGSGLVQSGGSLRLTCAASGYISLGDNMGWYRQAPGKELEFVATISVGGITYYVDSVKGPFTISRDIEKNTVYLQMNSLKPEDTAVYYCASLDIYYFRYYYWGQGTQVTVSS | low polyreactivity
QVHLVDSGGGLVQAGGPLRLTCPASGSTYRYTIGWYRQAPGKQRELVAAITGSAGRTYYADSVKGRFTISRDNAKNTVYLQMNSLKPEVTAVYYCNKVRPSKFWDYYYCGQGTQVTVSS | high polyreactivity
QVHLVDSGGGLVQAGGSLRLSCAASGLIFVSYAMGWYRQEPGKERELVASITDSDSSTYYADSVKGRFTISRDNAKNTVYLQMNSLKPEDTAVYYCATGGRTEIWYPTLDYWGQGTQVTVSS | low polyreactivity
QVHLVDSGGGLVQAGGSLRLSCAASGRIFSPYAMGWYRQAPGKERELVASINYSGGSTYADSVKGRFTISRDNAKNTVYLQMNSLKPEDTAVYYCAAEDIGRYYRLDYWGQGTQVSVSS | low polyreactivity
QVHLVDSGGGLVQAGGSLRLSCAASGRTFGRNAMGWYRQAPGKERELVAAISLRGGRTYYADSVKGRFTISRDNAKNTVYLQMNSLKPEDTAVYYCAAYGYRDYYFWGQGTQVTVSS | high polyreactivity
QVHLVDSGGGLVQAGGSLRLSCAASGRTFYSYAMGWYRQAPGKERELVAAINSGGDTYYADSVKGRFTISRDNAKNSVYLQMNSLKPEDTAVYYCAADYYWEMDSWGQGTQVTVSS | low polyreactivity
QVHLVDSGGGLVQAGGSLRLSCAASGRTFYYYAMGWYRQAHGKERELVATISRTGTTNYADSVKGRFTISRDNAKNTVYLQMNSLKPEDTAVYYCAAERATPWPKNDYWGQGTQVTVSS | high polyreactivity
QVHLVDSGGGLVQAGGSLRLSCAASGSIISVYFMEWYRQAPGKERELVASITSGASTNYADSVKGRFTISRDNAKNTVYLQINSLKPEDTAVYYCCARDWYDGFYYWGQGTQVTVSS | low polyreactivity
QVHLVDSGGGLVQAGGSLRLSCAASGSTFDYNAMGWYRQAPGQESELVAAISWRGGGTYYADSVKGRFTISRDNAKTTVYLQMNSLKPEDTAVYYCAASAYKGTGAEFDYWRQGTQVTVSS | low polyreactivity
QVHLVDSGGGLVQARGSLRLSCAASGLTFRYYTMAWYRQAPGKERELVAAISSSGGSTYYADSVKGRFTISRDNAKNTVYLQMNSLKPEDTAVYYCADSASLRHVYWGQGTQVTVSS | high polyreactivity

Sequence | polyreactivity (PSR sort gate)
QVHLVDSGVGLDQAGGILRLSCAASGSTFGFYALGWYRQSPGKERELVAAINSTGGSTYYADSVKGRFTISRDNAKNTVYLQMNSLKPEDTAVYYCNVDLYSLYDWGQGTQVTVSS | high polyreactivity
QVHLVDSGVGLVQAGGSLRLSCAASGYTFVPYAMGWYRQAPGKERELVAAISSSGGSTYYADAVKGRFTISRDNAKNTVYLQMNSRKPEDSAVYYWAADYRTGQFYAGFDYWGQGTQVTVSS | high polyreactivity
QVHLVESAVGLVQAGGSLRLSCAASASTFPSYAMGWYRQAPGKERELVAAINSGGGTNYADSVKGRFTISRDNAKNTVYLQMNSLKPEDTAVYYCAKSRYDYTKTEGGYWGQGTQVTVSS | low polyreactivity
QVHLVESGGALVQAGGSLRLSCAASAYTFSYYAMGWYRQAPGKEMELVAAITSTGSTYYADSVKGRFTISRDNAKNTVYLQMNSLKPEDTAVYYCNVDDATVGPVDYWGQGTQVTVSS | low polyreactivity
QVHLVESGGCLVQAGGSLRLSCAASGITFRWYAMGWYILAPGKERELVSSIDGRGASTYADSVKGRFTSSRDNAKNTVYLQMNSLKPEDSAVYYCAVAQVRVSYLWVRKFYYWGQGTQVTVSS | high polyreactivity
QVHLVESGGCLVQAGGSLRLSCAASGNSFVSNAMGWYIQAPGKERELVAAIDSGGSTNYADSVKGRFTISRDNAKNTVYLQMNSLKPVDTAVYYCNRTSVYYYYWGQGTQVTVSS | low polyreactivity
QVHLVESGGCLVQAGGSLRLSCAASGRIFGVYVMGWYRQARGTEREFVAAITWSGGRTYYADSVKGRFTISRDNAKNTVYFQMNSLKPQDTAVYYCAARRSYEYVYWGKGTQVTVSS | high polyreactivity
QVHLVESGGCLVQAGGSLRLSCAAYGSIFPKYALGWYRQAPGKERELVATISYRGGRTYYADSVKRRFTISRDNAKNTVYLQMNSLKPEDTAVYYWNAHSQAKLDYWGQGTQVTVSS | low polyreactivity
QVHLVESGGGIVQAGGSLRLSCAASGRTFRKYAMGWYRQAPGKEMELVAAISWSGGSTYYANSVKGRFTISRDHAKNTVYLQLNSLIPEDPAVYYCAATAYYYYDYDYWGQGTQVTVSS | low polyreactivity
QVHLVESGGGIVQAGGSLRLSCAASGSIFKKNAMGWSRQAPGKERELVAAITLSSSDTYYADSVKGRFTISRDNAKNTVYLQMNSLKPEDTAVYYCAAKRTRDMDYWGQGTQVTVSS | high polyreactivity
QVHLVESGGGIVQAGGSLRLSCAASGSIFKYYPMGWYRQAAGKERELVAVISSGGRTYYADSVKGRFTISRDNAKNTVYLQMNSLKPEDTAVYYCAVYRTFRYRYDSWGQGTQVTVSS | high polyreactivity
QVHLVESGGGIVQAGGSLRLSSAATGRTFPYNAMGWYRQAPGKERELVAAISSGGSTNYADSVKGRFTISRDNAKNTVYLQMNSLKPEDTAVYYCATKYQRRPYRYYYWGQGTQVTVSS | low polyreactivity
QVHLVESGGGLDQAGASLRITSAATGFTFRQNVKRWYRQAPGKESEFVATITWSGGRTSYADSVKGRFTISRDNAKNTVYLQMNSLKPEDTAVYYCAARFFSYSQYAYNYWGQGTQVTVSS | high polyreactivity
QVHLVESGGGLFQAGGSLRISCSASGSIFARNAMGWYRQAPGKERELVAAISRSGGSTYYADSVKGRFTISRDNAMMTVSFQMNSLKPEDTAVYYCAAVRRRTVGYNYWGQGTQVTVSS | high polyreactivity
QVHLVESGGGLFQAGGSLRLRCAASGFTFASNAMGWYIQAPGKERELVAAITRSGGSTFYADSVKGRFTISRDNAKNTVYLQMKSLKPEDTAVYYCNAAPYGFGWRVRAFTGYDYWGQGTQVTVSS | low polyreactivity
QVHLVESGGGLFQAVLSLRLSCAASGFIFQRYPMGWYRQAPGKESELVAAISSGGGTNYADSVKGRFTISRDNAKKTVYLQLNSLIPEDTAVYYCARPYYVYSQSSDYWGQGTQVTVSS | low polyreactivity
QVHLVESGGGLGQAGGSLRLSCAASGIIFRLYAKGWYIPAPGKERELVAAISRRGDSTYYADSVKGRFTISRDNAKNTVYLQMIILKPEDTAVYYCAAERWGDYGYWGQGTQVTVSS | high polyreactivity
QVHLVESGGGLLQAGGSLRLSCAASGSIFAYNAMGWYREAPRKERELVASITNGGSTYYADSVKGRFTISRYNAKNSVYLQMKSLKPEDTAVYYCNTDFDGYSVGYDGYWGQGTQVTVSA | low polyreactivity
QVHLVESGGGLVEAAVSLRLSYAASGITVKSYAMGSYRQAPGKERELVADISSSGGTTYYADYVKGRFTISRDNAKNTVYLKMKSLKAEHTAVYYCNAKWGRYFSGGYGDEYDYWGQGTQVTVSS | high polyreactivity
QVHLVESGGGLVHAGGRLRLSCAASGRIFGLNAMGWYRQAPGKERELVAAIDIIGGSTYYADSVKGRFTISRDNAKNTVYLQMNSLIPEDTAVFYCAAEADFWRFVEFDYWGQGTQVTVSS | low polyreactivity
